Patent US12534534 (F STAR BETA, dated 2026)
Substitutions are numbered along the chain they refer to. One block for each binder: values may come before it.

What was measured:
[1] = target: T1, human CD137 on DO11.10-hCD137 cells (human, UniProt Q07011 24-255); assay: flow cytometry on DO11.10-hCD137 cells, GMFI vs concentration
T1 construct: full-length human CD137 over-expressed on DO11.10 cells by lentiviral transduction; also called cell surface-expressed human CD137
Method: (§1) Non-specific binding was also assessed by testing binding to DO11.10 cells and HEK293 cells lacking CD137 expression.
(§2) Briefly, DO11.10, HEK293, DO11.10-hCD137 or DO11.10-cCD137 suspensions were prepared in PBS containing 2% BSA (Sigma, A7906) and seeded at 4×10^6 cell/ml with 50 µl/well in V-bottomed 96-well plates (Costar, 3897). mAb dilutions (1·10^-6-100 nM, 10-fold dilutions) were prepared at 2× the final concentration in triplicate in 1×DPBS (Gibco, 14190-094). […] The cells were washed once with PBS and resuspended in 100 µl of PBS containing DAPI (Biotium, 40043) at 1 µg/ml. The cells were analysed using a Canto II flow cytometer (BD Bioscience). Dead cells were excluded and the fluorescence in the FITC channel (488 nm/530/30) was measured. The geometric mean fluorescence intensity (GMFI) values were plotted vs the log concentration of antibody and the resulting curves were fitted using the log (agonist) vs response equation in GraphPad Prism.
Target sequence in this assay (Q07011 24-255): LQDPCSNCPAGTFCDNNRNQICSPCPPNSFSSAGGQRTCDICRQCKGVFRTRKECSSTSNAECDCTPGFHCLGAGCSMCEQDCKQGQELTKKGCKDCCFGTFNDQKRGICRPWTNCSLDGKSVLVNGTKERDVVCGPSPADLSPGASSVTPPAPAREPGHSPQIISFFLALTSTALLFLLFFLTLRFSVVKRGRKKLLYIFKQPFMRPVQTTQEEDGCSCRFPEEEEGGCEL

mFc-Avi = target: T2, mFc-Avi (mouse, UniProt P01863 99-330 = IgG part); assay: ELISA on streptavidin plates, mAb 0.1 to 300 nM
T2 construct: mouse Fc domain with Avi tag; negative control in the ELISA
T2 chain: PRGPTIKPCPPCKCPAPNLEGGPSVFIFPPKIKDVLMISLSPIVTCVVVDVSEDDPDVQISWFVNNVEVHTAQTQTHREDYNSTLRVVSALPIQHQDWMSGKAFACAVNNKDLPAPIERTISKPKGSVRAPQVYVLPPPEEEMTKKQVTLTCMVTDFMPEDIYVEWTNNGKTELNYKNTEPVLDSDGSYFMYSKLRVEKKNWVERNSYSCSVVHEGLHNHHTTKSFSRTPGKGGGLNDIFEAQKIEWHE
Method: (§3) Blocking solution was discarded and a dilution series of anti-CD137 mAb concentrations (0.1 to 300 nM, 3-fold dilutions) was added and incubated for 1 hour at room temperature whilst shaking at 450 rpm. Plates were washed 3× with 300 µl PBS/Tween 0.05%. Goat anti-human IgG (Fc fragment) antibody conjugated to Horseradish Peroxidase (Sigma, A0170) was diluted 1:10000 in PBS and 90 µl was added to the wells. After incubation for 1 hour at 4° C. whilst shaking at 450 rpm, plates were washed 3× with 300 µl PBS/Tween 0.05%, 100 µl TMB substrate (eBioscience, 00-4201-56) was added to each well. The reaction was stopped between 2-10 minutes after addition of TMB by the addition of 50 µl 1M sulphuric acid solution. Optical density (OD) was read at 450-630 nm in a 96-well plate reader within 30 minutes of sulphuric acid addition and analysed using GraphPad Prism software (GraphPad Software, Inc.).

streptavidin = target: T3, streptavidin (UniProt P22629 37-163, limits assumed); assay: ELISA on streptavidin plates, mAb 0.1 to 300 nM
T3 construct: negative control in the ELISA; also called Streptavidin plates (Thermo Scientific, 15500)
Method: as §3

human OX40-mFc = target: T4, human OX40-mFc (human, UniProt P43489 29-214); assay: ELISA on streptavidin plates, mAb 0.1 to 300 nM
T4 construct: produced in-house; negative control in the ELISA; also called human OX40-mFc-Avi; not shown: mFc part
T4 sequence: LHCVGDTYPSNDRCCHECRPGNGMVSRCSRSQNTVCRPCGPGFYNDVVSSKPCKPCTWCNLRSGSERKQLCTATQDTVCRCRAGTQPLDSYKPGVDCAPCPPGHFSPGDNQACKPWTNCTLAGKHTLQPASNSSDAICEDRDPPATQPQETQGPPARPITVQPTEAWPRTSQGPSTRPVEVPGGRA
Method: as §3

[2] = target: human CD137 on primary human CD8+ T cells (human, UniProt Q07011 24-255); assay: cell-based or functional assay
TNFRSF1B-Fc = target: T5, TNFRSF1B-Fc (human, UniProt P20333 23-257); assay: SPR, antigen immobilised on CM5 chip
T5 construct: bought; also called TNFRSF1B (R&D Systems, 726-R2-050); not shown: Fc part of the bought fusion
T5 sequence (looked up): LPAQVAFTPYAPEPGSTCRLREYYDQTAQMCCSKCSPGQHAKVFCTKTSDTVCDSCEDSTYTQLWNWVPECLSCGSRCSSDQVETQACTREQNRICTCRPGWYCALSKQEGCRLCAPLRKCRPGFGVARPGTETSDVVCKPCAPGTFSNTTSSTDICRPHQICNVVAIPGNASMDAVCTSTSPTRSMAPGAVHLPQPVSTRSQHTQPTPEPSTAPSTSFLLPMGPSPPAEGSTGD
Method: (§4) Flow cell 1 was run as a blank immobilisation. The five FS20-22-49AA/FS30 mAb² were diluted to 1 μM and 1 nM in 1×HBS-EP buffer (GE Healthcare, product code BR100188), allowed to flow over the chip for 3 min and then allowed to dissociate for 4 minutes. A 30-second injection of 10 mM glycine pH 1.5 was used for regeneration. […] Binding levels were determined at the end of the association phase and compared.
(§5) Specificity was tested against the same five human TNFRSF members closely-related to CD137 (TNFRSF1A, TNFRSF1B, GITR, NGFR and CD40) plus an additional closely-related TNFRSF member, human DR6 (DR6-Fc; R&D Systems, 144-DR-100), using SPR as described in Example 3.1.

NGFR-Fc = target: T6, NGFR-Fc (human, UniProt P08138 29-250); assay: SPR, antigen immobilised on CM5 chip
T6 construct: bought; also called NGFR (R&D Systems, 367-NR-050/CF); not shown: Fc part of the bought fusion
T6 sequence (looked up): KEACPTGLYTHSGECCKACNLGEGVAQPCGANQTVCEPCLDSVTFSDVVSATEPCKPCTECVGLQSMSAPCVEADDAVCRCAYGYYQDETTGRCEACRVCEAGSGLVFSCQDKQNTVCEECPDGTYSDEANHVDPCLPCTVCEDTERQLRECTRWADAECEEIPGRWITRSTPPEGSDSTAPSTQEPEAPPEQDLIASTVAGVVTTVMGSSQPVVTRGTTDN
Method: as §4, §5

GITR-hFc-Avi = target: T7, GITR-hFc-Avi (human, UniProt Q9Y5U5 26-161); assay: SPR, antigen immobilised on CM5 chip
T7 construct: in-house produced; not shown: hFc and Avi part
T7 sequence: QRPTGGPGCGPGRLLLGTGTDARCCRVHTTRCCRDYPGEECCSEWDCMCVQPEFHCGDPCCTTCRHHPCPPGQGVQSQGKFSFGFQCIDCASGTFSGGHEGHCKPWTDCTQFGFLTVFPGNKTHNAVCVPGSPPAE
Method: as §4, §5

TNFRSF1A-Fc = target: T8, TNFRSF1A-Fc (human, UniProt P19438 30-211, limits assumed); assay: SPR, antigen immobilised on CM5 chip
T8 construct: bought; also called TNFRSF1A (R&D Systems, 372-RI-050/CF); not shown: Fc part of the bought fusion
T8 sequence (looked up): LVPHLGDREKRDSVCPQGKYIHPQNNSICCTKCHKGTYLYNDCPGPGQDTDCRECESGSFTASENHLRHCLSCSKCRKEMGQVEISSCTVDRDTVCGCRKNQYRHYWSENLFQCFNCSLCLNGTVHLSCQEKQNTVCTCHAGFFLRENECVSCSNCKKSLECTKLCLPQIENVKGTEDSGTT
Method: as §4, §5

CD40-mFc = target: T9, CD40-mFc (human, UniProt P25942 21-193); assay: SPR, antigen immobilised on CM5 chip
T9 construct: in-house produced; not shown: mFc part
Method: as §4, §5

[3] = target: T10, cyno CD137 on DO11.10-cCD137 cells (cynomolgus, UniProt Q07011 24-255 (human entry)); assay: flow cytometry on DO11.10-cCD137 cells, GMFI vs concentration
T10 construct: full-length cyno CD137 over-expressed on DO11.10 cells; also called cell surface-expressed cyno CD137
T10 chain: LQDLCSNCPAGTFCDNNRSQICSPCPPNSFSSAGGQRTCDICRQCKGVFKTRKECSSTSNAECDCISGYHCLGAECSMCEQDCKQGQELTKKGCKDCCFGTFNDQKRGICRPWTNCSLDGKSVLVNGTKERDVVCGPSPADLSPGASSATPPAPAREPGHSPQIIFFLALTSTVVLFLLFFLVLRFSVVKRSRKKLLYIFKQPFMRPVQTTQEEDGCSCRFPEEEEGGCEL
Method: as §1, §2

[4] = target: T1, human CD137 on DO11.10-hCD137 cells; assay: cell binding at 10 nM to DO11.10-hCD137 cells, against the parent FS20-22-49AA/FS30-16

T3 sequence (P22629 37-163 limits assumed): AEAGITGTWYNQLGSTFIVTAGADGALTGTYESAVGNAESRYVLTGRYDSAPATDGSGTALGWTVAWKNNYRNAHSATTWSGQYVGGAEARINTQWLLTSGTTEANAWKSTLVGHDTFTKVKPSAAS
human CD137 on primary human CD8+ T cells, sequence (Q07011 24-255): as the sequence (Q07011 24-255) above
T9 sequence (P25942 21-193): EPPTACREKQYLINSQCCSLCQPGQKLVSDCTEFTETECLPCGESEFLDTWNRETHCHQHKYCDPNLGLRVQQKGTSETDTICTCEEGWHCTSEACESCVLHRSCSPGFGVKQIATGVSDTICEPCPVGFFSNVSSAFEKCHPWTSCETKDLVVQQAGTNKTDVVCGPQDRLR

EC50 [1]: 150 pM
binding result (mFc-Avi): no binding (tested: 300 nM)
binding result (streptavidin): no binding (tested: 300 nM)
binding result (human OX40-mFc): no binding (tested: 300 nM)
Activity of non-crosslinked mAbs at 100 nM (hIL-2 pg/ml) [2]: 449 pg/mL
EC50 (nM), hIL-2 release, primary human CD8+ T cell activation assay, crosslinked mAb [2]: 8.5 nM
Emax (hIL-2 pg/ml), crosslinked mAb [2]: 11100 pg/mL
binding result (TNFRSF1B-Fc): binds
binding result (NGFR-Fc): binds
binding result (GITR-hFc-Avi): binds
binding result (TNFRSF1A-Fc): binds
binding result (CD40-mFc): binds
EC50 [3]: 310 pM
B1: G1AA/FS30-15 (antibody, human IgG1, kappa, L234A L235A, V domains shown)
VH: EVQLLESGGGLVQPGGSLRLSCAASGFTFSGSGMSWVRQAPGKGLEWVSIIYSTNGDTDYADSVKGRFTISRDNSKNTLYLQMNSLRAEDTAVYYCARDFYDIANYYAFDYWGQGTLVTVSS
VL: EIVLTQSPGTLSLSPGERATLSCRASQSVSSSYLAWYQQKPGQAPRLLIYGASSRATGIPDRFSGSGSGTDFTLTISRLEPEDFAVYYCQQAYYDPITFGQGTKVEIKR
notes: human IgG1 with LALA mutation in CH2; also called FS30-15 mAb

EC50 [1]: 320 pM
binding result (mFc-Avi): no binding (tested: 300 nM)
binding result (streptavidin): no binding (tested: 300 nM)
binding result (human OX40-mFc): no binding (tested: 300 nM)
Activity of non-crosslinked mAbs at 100 nM (hIL-2 pg/ml) [2]: 497 pg/mL
EC50 (nM), hIL-2 release, primary human CD8+ T cell activation assay, crosslinked mAb [2]: 5.4 nM
Emax (hIL-2 pg/ml), crosslinked mAb [2]: 8560 pg/mL
EC50 [3]: 570 pM
B2: G1AA/FS30-10 (antibody, human IgG1, kappa, L234A L235A, V domains shown)
VH: EVQLLESGGGLVQPGGSLRLSCAASGFTFSSYDMSWVRQAPGKGLEWVSDIDPTGSKTDYADSVKGRFTISRDNSKNTLYLQMNSLRAEDTAVYYCARDLMVYGFDYWGQGTLVTVSS
VL: B1 VL with A92S, Y94S, D95Y, I97V
notes: human IgG1 with LALA mutation in CH2; also called FS30-10 mAb

EC50 [1]: 240 pM
binding result (mFc-Avi): no binding (tested: 300 nM)
binding result (streptavidin): no binding (tested: 300 nM)
binding result (human OX40-mFc): no binding (tested: 300 nM)
Activity of non-crosslinked mAbs at 100 nM (hIL-2 pg/ml) [2]: 509 pg/mL
EC50 (nM), hIL-2 release, primary human CD8+ T cell activation assay, crosslinked mAb [2]: 3.2 nM
Emax (hIL-2 pg/ml), crosslinked mAb [2]: 10900 pg/mL
EC50 [3]: 450 pM
B3: G1AA/FS30-5 (antibody, human IgG1, kappa, L234A L235A, V domains shown)
VH: EVQLLESGGGLVQPGGSLRLNCAASGFTFSSYAMSWVRQAPGKGLEWVSAISGSGGSTYYADSVKGRFTISRDNSKNTLYLQMNSLRAEDTAVYYCARSYDKYWGSSMYSGMDYWGQGTLVTVSS
VL: EIVLTQSPGTLSLSPGERATLSCRASQSVSSSYLAWYQQKPGQAPRLLIYGASSRATGIPDRFSGSGSGTDFTLTISRLEPEDFAVYYCQQYYSYYPVTFGQGTKVEIKR
notes: human IgG1 with LALA mutation in CH2; also called FS30-5 mAb

fold change of cell binding at 10 nM against the parent clone [4]: < 1.6 fold
B4: FS20-22-49AA/FS30-16 variant, Methionine (100A) to F (bispecific antibody, V domains shown)
VH: EVQLLESGGGLVQPGGSLRLSCAASGFTFSNYAMHWVRQAPGKGLEWVSTIDPTDGATNYADSVKGRFTISRDNSKNTLYLQMNSLRAEDTAVYYCARSKYYTYFQYVALDYWGQGTLVTVSS
VL: B3 VL with Y92G, Y93S, S94R, Y95F, Y96F, V98I
notes: Single-site variant of the parent mAb^2 FS20-22-49AA/FS30-16

EC50 [1]: 210 pM
binding result (mFc-Avi): no binding (tested: 300 nM)
binding result (streptavidin): no binding (tested: 300 nM)
binding result (human OX40-mFc): no binding (tested: 300 nM)
Activity of non-crosslinked mAbs at 100 nM (hIL-2 pg/ml) [2]: 402 pg/mL
EC50 (nM), hIL-2 release, primary human CD8+ T cell activation assay, crosslinked mAb [2]: 1.4 nM
Emax (hIL-2 pg/ml), crosslinked mAb [2]: 4840 pg/mL
EC50 [3]: 360 pM
B5: G1AA/FS30-16 (antibody, human IgG1, kappa, L234A L235A, V domains shown)
VH: B4 VH with F105M
VL: B3 VL with Y92G, Y93S, S94R, Y95F, Y96F, V98I
notes: human IgG1 with LALA mutation in CH2; also called FS30-16 mAb

fold change of cell binding at 10 nM against the parent clone [4]: < 1.6 fold
B6: FS20-22-49AA/FS30-16 variant, Methionine (100A) to P (bispecific antibody, V domains shown)
VH: B4 VH with F105P
VL: B3 VL with Y92G, Y93S, S94R, Y95F, Y96F, V98I
notes: as for B4
